# According to the DeepSol protein solubility set:
# Experiment: soluble on expression in E. coli; label from the status in PepcDB or PDB records
row,Sequence,soluble on expression in E. coli
1,GSSHCRFYENKYPEIDDIVMVNVQQIAEMGAYVKLLEYDNIEGMILLSELSRRRIRSIQKLIRVGKNDVAVVLRVDKEKGYIDLSKRRVSSEDIIKCEEKYQKSKTVHSILRYCAEKFQIPLEELYKTIAWPLSRKFGHAYEAFKLSIIDETVWEGIEPPSKDVLDELKNYISKR,soluble
2,MGNASENFDIEDLMSYGDDLINLLNVKNGFDIISQSSEQFKALNFACHEDFNQIQGSIEDCKTKLYACKKKTEEAYSDIAAEDEIERLQKELDEEMEREFKLKDELR,soluble
3,MGSDKIHHHHHHMSILGLFGCDNGRNIAIICKNNPEICADLHKDSWCLAEKTQLIRDRYTLKDTTHPTGKQLYLQLTYLEDYSRCIELAAGVQHIIHTSRTADRARAFRLSTENLTQLQEQTRERQDPFMSYYQWTRFGDTQALNRLLEHENAGEVTDPFLLAQIATYYSNRDAIKSQQLYLKVLSEIQYDDFDVNWLLGLASTFRHTQQFDKTYMLTKANLLLTQQKYSEDKMLALLSNNKTLAAKLDKYAQTLIDALKNGNYSTSSVRKWLEPAPQILPAETITTEPVPEK,not soluble
4,GPGSMPVEQLEEENKTLRTKVRVLEEELKHRNAECVRLRDELQLLSGVMRENDSQRQLIDTLREELEFSRKSHAEAVEALNVGEKQRRNEEHRQRMARVQLQLSTSGMDVKTGTSSQAGGAVLPVVTGGVVPTSSGVEIICKSSNISSLGFAPVQRPPDFAGSAYGQFYRGVANSADLVEEEDEVSRLMAMAKDGAMLDIKHAEVTDGEENELLERYKALKLWKPN,not soluble
5,MTDIISQNENKDDFEDGELPEDGEICDDEDESVKAVPSKSSESAPGAHIAPAHPEKTSGRDSRERVRRFEGNSPPRERDPDPFGSHNDAPDGNDYFGGDKDYRSGAAASSEEEPFSDTDYRVNRRRRLSPSHDDGDFDPRSKRPYYGGRGGFRGGFRNGAKPRFQTEHQICKFFREGYCRDGDNCLYSHQAEDSLRRPVLCNFYANSFCKKGLQCLMLHGEFPCKSFHKGQCNHDPCRFSHVPLTDYTRPIIEKILADEEARQAHQAQQAQTYRQNPVANAAAAAAAAQVMPRRRVLLPGGPNMNGSSPPHATPVIHAPIPQASHPSQLPPPAVVVPTIQRNPGPGIPIHQQYPVAPAAGGYFNQGPRPEQVQGLPPPRTIEPPRLSTQTPPIMHQQQPQLMRPMHPVPIQHPHLQQPGLVQPPQIVSQERHTASPQGFNLEAMLNKMANGEKLISSPRNNVVDDSPASPPPSNYSSMFGSSNRVAVIPQTVQVTWGLVRVQRRLPYSNVENPDRIAANDPRRAKAIAKQFDAFSSLLGAGGNAVSDPRLRAQKEKNDRQQNTMPFSSWMPQIS,not soluble
6,MGSSHHHHHHGKTIFVIVPTNEEQVAFLEALAKQDELNFDWQNPPTEPGQPVVILIPSDMVEWFLEMLKAKGIPFTVYVEEGGSENLYFQGGGGGGLSLPAFSPHCHSLRLGFHVFRKQRARTKTAAVAEQRGLRWTHTTARTAKSGWPPRGHTDTHTHTHTHTHITWEYASSGMTLVFEARRLPFGSISEVYAASIQPIVALHALDKLPLWDRCMLVAVLPVVQQRHSASAAAAPPSTVVRPSLTRNDSDNADAAAASLSSATVRAANHEERVNASPELAGAPSLEDVALALTIVRALDELEVVYDSSISTRAELEQQQQQQPSLPAASLAEAPRRAFKQPKKTSEELLMEQLLQERFTDTAPYLLESSDEGGENSADAAVDVAMCFTVKGESLGIGSATIFGGHGYHP,not soluble
7,MGGSHHHHHHGMASAVNVYSTSVTSDNLSRHDMLAWINESLQLNLTKIEQLCSGAAYCQFMDMLFPGSIALKKVKFQAKLEHEYIQNFKILQAGFKRMGVDKIIPVDKLVKGKFQDNFEFVQWFKKFFDANYDGKDYDPVAARQGQETAVAPSLVAPALNKPKKPLTSSSAAPQRPISTQRTAAAPKAGPGVVRKNPGVGNGDDEAAELMQQVNVLKLTVEDLEKERDFYFGKLRNIELICQENEGENDPVLQRIVDILYATDEGFVIPDEGGPQEEQEEY,not soluble
8,STRPVGGTEYSWCRAIDGGTGIAVIALLLSRTPKLQNLQNTLDKLQIYHPTLRSNIRFDASANSFSFVVTSAADSHVEIHPFDSVSTAQIIRDSDDPCADPHRIILEHEMNKNTWINPHRWIKSESRVFIVSLYDLTDDGEQRILTFRLNTAAVDRTAAVTLLREFMKETAADGFGNGPVVAATETAVGLGKAIEELIPSGKGDKPFWARGIDVLGYSLNAFRFSNLNFVDAENSNRRSQLVRLKLDRDQTLKLVAGCKARGLKLWAALASSALIAAYSSKNLPPYQGEKYAVVTLSDCRSILEPPLTSNDFGFYHAGILHTHDLTGEEKLWDLAKRCYDSFTSSKNSNKQFTDMSDLNFLMCKAIENPNLTPSSSLRTAFISIFEDPVIDESPEPELASLGVQDYIGCASIHGVGPSVAVFDALRDGKLDCAFVYPSPLHSREQMDGLIQHMKTILLEGSASSF,soluble
9,MKNRYAKVSNMAKNASSPSRRFMKLAGMTASIATKTVSNSIRNLTADDEQKLASKTKLFQDIGIQIADTLGEMKGAVMKVGQIASQYKDIFPPEVAKAIAKLQRQAPAVPFSAIQQQVEKELGKPLLQAFQSFDQQPFAAASIGQVHRAVLPDGQEVVVKVQYPGVDEACESDLKQVRLALRLMGVIKIDKKLQDQLFTEIQDSLSDELNYEIEAQNLEVFKTFHQQLDNKIIIPTVYKNYSSRRILTLSLERGDSIETASTWPLETRNQIGRRLIRALGQEIFYLKRFHCDPHPGNFAFREDGTVIIYDFGGVKTLSSDIVSHFKHLVQAARQQDITAIENHLDALHSLSDKGLFPEELYLQWLEVLLRPLTTHYDFAENSAHHDGVTLVKKSLKYWDVFKPSPDTLMVNRTISGHYWNLIHLKVHDDLSDLFEELVPTTIN,not soluble
10,MRYKKTLMLSIMITSFNSFAFNDNYSSTSTVYATSNEATDSRGSEHLRYPYLECIKIGMSRDYLENCVKVSFPTSQDMFYDAYPSTESDGAKTRTKEDFSARLLAGDYDSLQKLYIDFYLAQTTFDWEIPTRDQIETLVNYANEGKLSTALNQEYITGRFLTKENGRYDIVNVGGVPDNTPVKLPAIVSKRGLMGTTSVVNAIPNEIYPHIKVYEGTLSRLKPGGAMIAVLEYDVSELSKHGYTNLWDVQFKVLVGVPHAETGVIYDPVYEETVKPYQPSGNLTGKKLYNVSTNDMHNGYKWSNTMFSNSNYKTQILLTKGDGSGVKLYSKAYSENFK,not soluble
11,MSLIHPHIADALKVPDLVRLNDDLVLIRFESMKIYSALAAVRHLLERGTIRPGQTLIDSSSGIYAYALALACHRYGMRCHVVASTTVDTTTRAQLEILGATVEQVRPSRNLKLDQELRVRRVREILADHPDWHWMRQYHDDVHYLGYQEVADRITTAFPSTPLTVVGGVGSGASTGGLVERLRATDPSVRLVGVQPFGSVTFGSQAHHDPEAIIAGIGSSIVFDNVRHHLYDAVHWLDFTHAMSGTIALLRERAVFAGLSTGAGYLAATYEARRHPDRLHLVIGADTGHRYVERVFARHTEALDPAPLKPVEVSAPEEMSMPWSRMAWRRTAEGHHHHHH,soluble
12,MLSSPLRVAVVCVSNINRSMEAHSILRRKGLSVRSFGTESHVRLPGRRPNHPVVYDFATTYKEMYNDLLRKDRECYTHNGILHILGRNERIKPGPERFQECTEFFDVIFTCEERVYDTVVEDLCSREQQTFQPVHVINMDIKDTLEGAILGAFLICEICQCLQQSDDMEDSLEELLLQMEEKAGKSFLHTVCFYLEHHHHHH,soluble
13,GMTQDNASGDQVSKQHKAFLRKLYLAHLMDDARHNLLSLGKLTGMPRRTLQDAIASFADIGIEVEFVQDGERHNAGYYRIRTWGPISSAWMDTHVDEVKSLLGVDDAVGQATAGNGA,soluble
14,MEIIFYHPTFNAAWWVNALEKALPHARVREWKVGDNNPADYALVWQPPVEMLAGRRLKAVFVLGAGVDAILSKLNAHPEMLDASIPLFRLEDTGMGLQMQEYAVSQVLHWFRRFDDYQALKNQALWKPLPEYTREEFSVGIMGAGVLGAKVAESLQAWGFPLRCWSRSRKSWPGVESYVGREELRAFLNQTRVLINLLPNTAQTVGIINSELLDQLPDGAYVLNLARGVHVQEADLLAALDSGKLKGAMLDVFSQEPLPQESPLWRHPRVAMTPHIAAVTRPAEAIDYISRTITQLEKGEPVTGQVDRARGY,not soluble
